# Patent publication US6673915 (GENERAL HOSPITAL, dated 2004)
# T1: CC CKR3 stably expressed on HEK-293 cells (Example 10A) (human, UniProt P51677 1-355)
# T1 sequence (looked up): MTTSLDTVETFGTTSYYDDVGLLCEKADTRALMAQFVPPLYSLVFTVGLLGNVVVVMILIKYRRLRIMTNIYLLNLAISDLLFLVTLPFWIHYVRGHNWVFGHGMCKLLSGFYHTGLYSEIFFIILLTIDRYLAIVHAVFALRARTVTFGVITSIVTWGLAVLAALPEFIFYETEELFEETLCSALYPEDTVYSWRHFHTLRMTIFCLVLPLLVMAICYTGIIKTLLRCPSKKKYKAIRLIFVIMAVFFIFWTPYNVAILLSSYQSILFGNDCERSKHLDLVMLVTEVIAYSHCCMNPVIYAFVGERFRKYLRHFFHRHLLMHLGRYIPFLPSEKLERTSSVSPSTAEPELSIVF
# B1: recombinant human MCP-4 with the mature N-terminal Gln (PeproTech) (ligand)
# chain: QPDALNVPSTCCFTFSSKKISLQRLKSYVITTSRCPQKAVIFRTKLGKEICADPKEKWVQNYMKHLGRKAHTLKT
# Biological target: T1, CC CKR3 stably expressed on HEK-293 …
# Test: cell-based or functional assay
binder,measurement,value
B1,EC50 of calcium flux relative to eotaxin at CKR3,~2 fold
